Measurements reported in the supplement of paper PMC9112550, “Optimization of the antimicrobial peptide Bac7 by deep mutational scanning” (BMC Biology, 2022).
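Note: peptides expressed intracellularly from a pBAD plasmid library in pooled LB shake-flask culture, induced with 0.3% L-arabinose, DNA abundance read by NGS, three biological replicates, DESeq2 with apeglm shrinkage.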

These sequences were tested on Escherichia coli TOP10 (assay: shrunken log2 fold change of peptide-encoding DNA abundance (4.5 h post-induction vs induction); higher = less antimicrobial activity (less host growth inhibition)). Details: time post-induction: 4.5 h; library: site-saturation at positions 5, 18, 19, 20.
With RRIRSRPPRLPRPRPRPPANPRP the “shrunken log2 fold change” value was 0.283. For RRIRSRPPRLPRPRPRPPCHPRP, the “shrunken log2 fold change” value was -0.0302. For RRIRSRPPRLPRPRPRPPCWPRP, the “shrunken log2 fold change” value was 0.29. In the case of RRIRSRPPRLPRPRPRPPDCPRP, the “shrunken log2 fold change” value is reported as -0.046. RRIRSRPPRLPRPRPRPPDLPRP was tested, and the “shrunken log2 fold change” value was 0.543. With RRIRSRPPRLPRPRPRPPFAPRP the “shrunken log2 fold change” value was 1.88. In the case of RRIRSRPPRLPRPRPRPPGCPRP, the “shrunken log2 fold change” value is reported as 0.676. With RRIRSRPPRLPRPRPRPPIFPRP the “shrunken log2 fold change” value was -0.576. In the case of RRIRSRPPRLPRPRPRPPKMPRP, the “shrunken log2 fold change” value is reported as 0.00423. RRIRSRPPRLPRPRPRPPLWPRP was tested, and the “shrunken log2 fold change” value was 0.704. In the case of RRIRSRPPRLPRPRPRPPNGPRP, the “shrunken log2 fold change” value is reported as 0.36. In the case of RRIRSRPPRLPRPRPRPPPCPRP, the “shrunken log2 fold change” value is reported as 0.408. In the case of RRIRSRPPRLPRPRPRPPPIPRP, the “shrunken log2 fold change” value is reported as 0.572. In the case of RRIRSRPPRLPRPRPRPPQLPRP, the “shrunken log2 fold change” value is reported as 0.209. With RRIRSRPPRLPRPRPRPPQNPRP the “shrunken log2 fold change” value was 0.294. In the case of RRIRSRPPRLPRPRPRPPQSPRP, the “shrunken log2 fold change” value is reported as 0.373. In the case of RRIRSRPPRLPRPRPRPPQYPRP, the “shrunken log2 fold change” value is reported as -0.0375. With RRIRSRPPRLPRPRPRPPSGPRP the “shrunken log2 fold change” value was 0.489. For RRIRSRPPRLPRPRPRPPTFPRP, the “shrunken log2 fold change” value was -0.0599. In the case of RRIRSRPPRLPRPRPRPPVNPRP, the “shrunken log2 fold change” value is reported as -0.489. With RRIRSRPPRLPRPRPRPPVQPRP the “shrunken log2 fold change” value was 0.319. RRIRSRPPRLPRPRPRPPWCPRP was tested, and the “shrunken log2 fold change” value was 0.309. In the case of RRIRSRPPRLPRPRPRPPWGPRP, the “shrunken log2 fold change” value is reported as 0.317. RRIRSRPPRLPRPRPRPPWIPRP was tested, and the “shrunken log2 fold change” value was -0.0981. For RRIRSRPPRLPRPRPRPPWQPRP, the “shrunken log2 fold change” value was 0.449. In the case of RRIRSRPPRLPRPRPRPPWTPRP, the “shrunken log2 fold change” value is reported as 0.319. With RRIRSRPPRLPRPRPRPQAYPRP the “shrunken log2 fold change” value was 0.0251. RRIRSRPPRLPRPRPRPQCTPRP was tested, and the “shrunken log2 fold change” value was 0.294. For RRIRSRPPRLPRPRPRPQDEPRP, the “shrunken log2 fold change” value was -0.101. With RRIRSRPPRLPRPRPRPQDKPRP the “shrunken log2 fold change” value was -0.0231. In the case of RRIRSRPPRLPRPRPRPQDQPRP, the “shrunken log2 fold change” value is reported as -0.0695. For RRIRSRPPRLPRPRPRPQESPRP, the “shrunken log2 fold change” value was -0.0242. In the case of RRIRSRPPRLPRPRPRPQFNPRP, the “shrunken log2 fold change” value is reported as -0.498. With RRIRSRPPRLPRPRPRPQGHPRP the “shrunken log2 fold change” value was 0.00442. RRIRSRPPRLPRPRPRPQHQPRP was tested, and the “shrunken log2 fold change” value was -0.0399. In the case of RRIRSRPPRLPRPRPRPQICPRP, the “shrunken log2 fold change” value is reported as -0.0872. With RRIRSRPPRLPRPRPRPQIDPRP the “shrunken log2 fold change” value was -0.0914. With RRIRSRPPRLPRPRPRPQKLPRP the “shrunken log2 fold change” value was 0.0126. In the case of RRIRSRPPRLPRPRPRPQKQPRP, the “shrunken log2 fold change” value is reported as -0.122. RRIRSRPPRLPRPRPRPQKRPRP was tested, and the “shrunken log2 fold change” value was -0.343. For RRIRSRPPRLPRPRPRPQLWPRP, the “shrunken log2 fold change” value was 0.0725. RRIRSRPPRLPRPRPRPQMHPRP was tested, and the “shrunken log2 fold change” value was -0.351. RRIRSRPPRLPRPRPRPQNFPRP was tested, and the “shrunken log2 fold change” value was 0.00814. With RRIRSRPPRLPRPRPRPQNKPRP the “shrunken log2 fold change” value was -0.561. RRIRSRPPRLPRPRPRPQPDPRP was tested, and the “shrunken log2 fold change” value was -0.185. RRIRSRPPRLPRPRPRPQPEPRP was tested, and the “shrunken log2 fold change” value was -0.279. With RRIRSRPPRLPRPRPRPQPFPRP the “shrunken log2 fold change” value was -0.0168. In the case of RRIRSRPPRLPRPRPRPQPNPRP, the “shrunken log2 fold change” value is reported as -0.00561. RRIRSRPPRLPRPRPRPQPPPRP was tested, and the “shrunken log2 fold change” value was 0.489. With RRIRSRPPRLPRPRPRPQQLPRP the “shrunken log2 fold change” value was -0.0917. RRIRSRPPRLPRPRPRPQQVPRP was tested, and the “shrunken log2 fold change” value was 0.0131. For RRIRSRPPRLPRPRPRPQRIPRP, the “shrunken log2 fold change” value was -0.322. In the case of RRIRSRPPRLPRPRPRPQRKPRP, the “shrunken log2 fold change” value is reported as 0.264. For RRIRSRPPRLPRPRPRPQRPPRP, the “shrunken log2 fold change” value was 0.0966. RRIRSRPPRLPRPRPRPQSKPRP was tested, and the “shrunken log2 fold change” value was -0.0711. With RRIRSRPPRLPRPRPRPQTQPRP the “shrunken log2 fold change” value was 0.198. In the case of RRIRSRPPRLPRPRPRPQTVPRP, the “shrunken log2 fold change” value is reported as -0.26. With RRIRSRPPRLPRPRPRPQVFPRP the “shrunken log2 fold change” value was 0.0316. RRIRSRPPRLPRPRPRPQVSPRP was tested, and the “shrunken log2 fold change” value was -0.236. For RRIRSRPPRLPRPRPRPQWIPRP, the “shrunken log2 fold change” value was -0.425. In the case of RRIRSRPPRLPRPRPRPQWQPRP, the “shrunken log2 fold change” value is reported as 0.0358. RRIRSRPPRLPRPRPRPQYAPRP was tested, and the “shrunken log2 fold change” value was -0.282. RRIRSRPPRLPRPRPRPQYFPRP was tested, and the “shrunken log2 fold change” value was -0.18. With RRIRSRPPRLPRPRPRPQYNPRP the “shrunken log2 fold change” value was -0.863. In the case of RRIRSRPPRLPRPRPRPQYSPRP, the “shrunken log2 fold change” value is reported as -0.165. With RRIRSRPPRLPRPRPRPQYYPRP the “shrunken log2 fold change” value was -0.29. RRIRSRPPRLPRPRPRPRALPRP was tested, and the “shrunken log2 fold change” value was 0.0323. RRIRSRPPRLPRPRPRPREWPRP was tested, and the “shrunken log2 fold change” value was 0.759. With RRIRSRPPRLPRPRPRPRFCPRP the “shrunken log2 fold change” value was 0.23. RRIRSRPPRLPRPRPRPRFVPRP was tested, and the “shrunken log2 fold change” value was 0.129. For RRIRSRPPRLPRPRPRPRGCPRP, the “shrunken log2 fold change” value was 0.383. For RRIRSRPPRLPRPRPRPRGNPRP, the “shrunken log2 fold change” value was 0.0829. With RRIRSRPPRLPRPRPRPRHNPRP the “shrunken log2 fold change” value was -0.324. With RRIRSRPPRLPRPRPRPRKDPRP the “shrunken log2 fold change” value was 0.271. For RRIRSRPPRLPRPRPRPRLCPRP, the “shrunken log2 fold change” value was 0.28. With RRIRSRPPRLPRPRPRPRLHPRP the “shrunken log2 fold change” value was 0.15. For RRIRSRPPRLPRPRPRPRLRPRP, the “shrunken log2 fold change” value was 0.287. With RRIRSRPPRLPRPRPRPRMWPRP the “shrunken log2 fold change” value was 0.114. With RRIRSRPPRLPRPRPRPRNYPRP the “shrunken log2 fold change” value was -0.465. For RRIRSRPPRLPRPRPRPRPDPRP, the “shrunken log2 fold change” value was 0.218. RRIRSRPPRLPRPRPRPRPVPRP was tested, and the “shrunken log2 fold change” value was 1.01. RRIRSRPPRLPRPRPRPRRIPRP was tested, and the “shrunken log2 fold change” value was 0.135. With RRIRSRPPRLPRPRPRPRRQPRP the “shrunken log2 fold change” value was 0.681. With RRIRSRPPRLPRPRPRPRRRPRP the “shrunken log2 fold change” value was 0.312. RRIRSRPPRLPRPRPRPRTPPRP was tested, and the “shrunken log2 fold change” value was 0.502. With RRIRSRPPRLPRPRPRPRTYPRP the “shrunken log2 fold change” value was -0.452. With RRIRSRPPRLPRPRPRPRYLPRP the “shrunken log2 fold change” value was -0.329. For RRIRSRPPRLPRPRPRPSCIPRP, the “shrunken log2 fold change” value was -0.223. In the case of RRIRSRPPRLPRPRPRPSCPPRP, the “shrunken log2 fold change” value is reported as -0.494. In the case of RRIRSRPPRLPRPRPRPSCQPRP, the “shrunken log2 fold change” value is reported as -0.175. For RRIRSRPPRLPRPRPRPSETPRP, the “shrunken log2 fold change” value was -0.44. In the case of RRIRSRPPRLPRPRPRPSFCPRP, the “shrunken log2 fold change” value is reported as -0.251. RRIRSRPPRLPRPRPRPSGCPRP was tested, and the “shrunken log2 fold change” value was 0.208. In the case of RRIRSRPPRLPRPRPRPSGDPRP, the “shrunken log2 fold change” value is reported as 0.118. With RRIRSRPPRLPRPRPRPSHPPRP the “shrunken log2 fold change” value was -0.277. RRIRSRPPRLPRPRPRPSHTPRP was tested, and the “shrunken log2 fold change” value was -0.572. For RRIRSRPPRLPRPRPRPSIIPRP, the “shrunken log2 fold change” value was -0.253. RRIRSRPPRLPRPRPRPSIKPRP was tested, and the “shrunken log2 fold change” value was -0.613. RRIRSRPPRLPRPRPRPSIMPRP was tested, and the “shrunken log2 fold change” value was -0.196. RRIRSRPPRLPRPRPRPSKDPRP was tested, and the “shrunken log2 fold change” value was -0.61. With RRIRSRPPRLPRPRPRPSKQPRP the “shrunken log2 fold change” value was -0.225. For RRIRSRPPRLPRPRPRPSLEPRP, the “shrunken log2 fold change” value was 0.0147. In the case of RRIRSRPPRLPRPRPRPSLGPRP, the “shrunken log2 fold change” value is reported as 0.319. With RRIRSRPPRLPRPRPRPSLYPRP the “shrunken log2 fold change” value was -0.432. With RRIRSRPPRLPRPRPRPSNDPRP the “shrunken log2 fold change” value was -0.349. For RRIRSRPPRLPRPRPRPSPSPRP, the “shrunken log2 fold change” value was 0.0408. RRIRSRPPRLPRPRPRPSPTPRP was tested, and the “shrunken log2 fold change” value was -0.0425. In the case of RRIRSRPPRLPRPRPRPSQCPRP, the “shrunken log2 fold change” value is reported as -0.265. In the case of RRIRSRPPRLPRPRPRPSSEPRP, the “shrunken log2 fold change” value is reported as 0.0612.
